Test results: patent publication CN117736324A (BEIJING DONGFANG BIOTECH CO LTD; BEIJING JINGYI TAIXIANG …, dated 2024)

B1: MA-IV 噬菌体单克隆抗体 (phage-displayed scFv) (scFv, V domains shown)
VH: EVKLQESGAELVKPGASVKLSCIASGFNIKDTFIHWVKQRPEQGLEWIGRIDPASGYTKYDPKFQGKATITTDTSSNTAYLQLSSLTSEDTAVYYCTRSGSYVSFVYWGQGTLVTVSA
VL: DIVMTQTPASLAVSLGQRATISCKASQSVDYDGDSYMNWYQQKPGQPPKLLIYAASNLESGIPARFSGSGSGTDFTLNIHPVEEEDAATYYCQQSNEDPWTFGGGTKLEIK
notes: also called 抗Siglec-15噬菌体单克隆抗体
B2: MA-II 噬菌体单克隆抗体 (phage-displayed scFv) (scFv, V domains shown)
VH: EVKLEQSGGGLVKPGGSLKLSCAASGFTFSSYAMSWVRQSPEKRLEWVAEIISGGSHTYYPDTVTGRFTISRDDAKNTLYLEMSSLRSEDTAMYYCARDGNYGYAMDYWGQGTSVTVSS
VL: DIVITQTPAIMSASPGEKVTMTCRASSSVSSSYLHWYQQKSGASPKLWIYSTSNLASGVPARFSGGGSGTSYSLTISSVEAEDDATYYCQQWSGYPWTFGGGTKLEIK
notes: as for B1
B3: MA-III 噬菌体单克隆抗体 (phage-displayed scFv) (scFv, V domains shown)
VH: QVKLEESGPELVKPGASVKMSCKASGYIFTSYVMHWVRQKPGQGLEWIGYIDPYNDRTKYNEKFKGKATLTSDKSSSTAYMELSSLTSEDSAVYYCARSGDYGSSFDYWGQGTTLTVSS
VL: DIVMTQSPSSLSASLGERVSLTCRASQEISGYLSWLQQKPDGTIKRLIYAASTLDSGVPKRFSGSRSGSDYSLTISSLESEDFADYYCLQYASYPYTFGGGTKLEIK
notes: as for B1
B4: MA-I 噬菌体单克隆抗体 (phage-displayed scFv) (scFv, V domains shown)
VH: EVKLEQSGPELVKPGASVKISCKASGYTFTDYNMFWVKQSHGKTLEWIGYIYPDNGGTGYNQNFKSKATLTVDNSSSSAYMELRSLTSEDSAVYYCARSEYDYFDYWGQGTTLTVSS
VL: DIVLTQSTSSLSASLGDRVTISCRASQDISNYLNWYQQKPDGTVKLLIYYTSRLHSGVPSRFSGSGSGTDYSLTISNLEQEDIATYFCQQGNTLPLTFGAGTKLELK
notes: as for B1
B5: 人源化抗体分子HA-II (human IgG1/Ck) (antibody, V domains shown)
VH: QVQLVQSGAEVKKPGASVKVSCKASGYTFTDYNMFWVRQAPGQRLEWIGYIYPDNGGTGYNQNFKSKATLTVDNSASTAYMELSSLRSEDTAVYYCARSEYDYFDYWGQGTLVTVSS
VL: DIQLTQSPSSLSASVGDRVTITCRASQDISNYLNWYQQKPGKAPKLLIYYTSRLHSGVPSRFSGSGSGTDYTFTISSLQPEDIATYFCQQGNTLPLTFGQGTKVELKR
notes: also called HA-Ⅱ
B6: 嵌合抗体CA-I (antibody, human IgG1, kappa, L234A L235A)
heavy: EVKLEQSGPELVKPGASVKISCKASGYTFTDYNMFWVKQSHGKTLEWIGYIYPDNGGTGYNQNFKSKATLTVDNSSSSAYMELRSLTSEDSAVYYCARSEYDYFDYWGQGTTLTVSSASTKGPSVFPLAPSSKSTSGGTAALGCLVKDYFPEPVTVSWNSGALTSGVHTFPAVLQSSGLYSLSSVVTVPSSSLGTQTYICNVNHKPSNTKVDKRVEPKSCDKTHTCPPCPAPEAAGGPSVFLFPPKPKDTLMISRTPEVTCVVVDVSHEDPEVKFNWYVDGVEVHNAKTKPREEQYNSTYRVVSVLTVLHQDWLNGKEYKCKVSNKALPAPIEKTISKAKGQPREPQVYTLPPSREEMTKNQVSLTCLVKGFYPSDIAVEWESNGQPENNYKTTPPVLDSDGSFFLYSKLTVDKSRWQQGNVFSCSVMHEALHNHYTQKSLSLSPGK
light: DIVLTQSTSSLSASLGDRVTISCRASQDISNYLNWYQQKPDGTVKLLIYYTSRLHSGVPSRFSGSGSGTDYSLTISNLEQEDIATYFCQQGNTLPLTFGAGTKLELKRTVAAPSVFIFPPSDEQLKSGTASVVCLLNNFYPREAKVQWKVDNALQSGNSQESVTEQDSKDSTYSLSSTLTLSKADYEKHKVYACEVTHQGLSSPVTKSFNRGEC
B7: MA-IV 鼠源抗Siglec-15单克隆抗体 (mouse IgG1/Ck) (antibody, V domains shown)
VH: B1 VH
VL: DIVMTQTPASLAVSLGQRATISCKASQSVDYDGDSYMNWYQQKPGQPPKLLIYAASNLESGIPARFSGSGSGTDFTLNIHPVEEEDAATYYCQQSNEDPWTFGGGTKLEIKA
notes: also called 鼠源抗体分子
B8: MA-I 鼠源抗Siglec-15单克隆抗体 (mouse IgG1/Ck) (antibody)
heavy: EVKLEQSGPELVKPGASVKISCKASGYTFTDYNMFWVKQSHGKTLEWIGYIYPDNGGTGYNQNFKSKATLTVDNSSSSAYMELRSLTSEDSAVYYCARSEYDYFDYWGQGTTLTVSSAKTTPPSVYPLAPGSAAQTNSMVTLGCLVKGYFPEPVTVTWNSGSLSSGVHTFPAVLQSDLYTLSSSVTVPSSTWPSETVTCNVAHPASSTKVDKKIVPRDCGCKPCICTVPEVSSVFIFPPKPKDVLTITLTPKVTCVVVDISKDDPEVQFSWFVDDVEVHTAQTQPREEQFNSTFRSVSELPIMHQDWLNGKEFKCRVNSAAFPAPIEKTISKTKGRPKAPQVYTIPPPKEQMAKDKVSLTCMITDFFPEDITVEWQWNGQPAENYKNTQPIMDTDGSYFVYSKLNVQKSNWEAGNTFTCSVLHEGLHNHHTEKSLSHSPG
light: DIVLTQSTSSLSASLGDRVTISCRASQDISNYLNWYQQKPDGTVKLLIYYTSRLHSGVPSRFSGSGSGTDYSLTISNLEQEDIATYFCQQGNTLPLTFGAGTKLELKADAAPTVSIFPPSSEQLTSGGASVVCFLNNFYPKDINVKWKIDGSERQNGVLNSWTDQDSKDSTYSMSSTLTLTKDEYERHNSYTCEATHKTSTSPIVKSFNRNEC
notes: also called MA-1; 鼠源抗体分子
B9: MA-II 鼠源抗Siglec-15单克隆抗体 (mouse IgG1/Ck) (antibody, V domains shown)
VH: B2 VH
VL: DIVITQTPAIMSASPGEKVTMTCRASSSVSSSYLHWYQQKSGASPKLWIYSTSNLASGVPARFSGGGSGTSYSLTISSVEAEDDATYYCQQWSGYPWTFGGGTKLEIKA
notes: also called 鼠源抗体分子
B10: MA-III 鼠源抗Siglec-15单克隆抗体 (mouse IgG1/Ck) (antibody, V domains shown)
VH: B3 VH
VL: DIVMTQSPSSLSASLGERVSLTCRASQEISGYLSWLQQKPDGTIKRLIYAASTLDSGVPKRFSGSRSGSDYSLTISSLESEDFADYYCLQYASYPYTFGGGTKLEIKA
notes: also called 鼠源抗体分子

What follows are binders tested against T1, 人Siglec-15抗原 (Siglec-15蛋白胞外段) (human, UniProt Q6ZMC9 20-263) (assay: phage supernatant ELISA, screening of single clones).
T1 construct: extracellular domain
T1 sequence (looked up): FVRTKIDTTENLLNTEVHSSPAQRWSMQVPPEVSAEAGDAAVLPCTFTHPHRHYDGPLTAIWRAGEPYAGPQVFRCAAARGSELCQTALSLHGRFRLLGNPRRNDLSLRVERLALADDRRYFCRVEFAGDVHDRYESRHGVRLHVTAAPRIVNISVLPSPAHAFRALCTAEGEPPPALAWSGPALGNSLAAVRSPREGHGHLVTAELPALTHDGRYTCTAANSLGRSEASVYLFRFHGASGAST

Row | Binder | binding result
1 | B1 | binds
2 | B2 | binds
3 | B3 | binds
4 | B4 | binds

The binders below were run against T1, 人Siglec-15抗原 (Siglec-15蛋白胞外段) (assay: ELISA, Siglec-15 coated, Goat Anti Human IgG-HRP detection).

Row | Binder | binding result
5 | B5 | binds
6 | B6 | binds

Each binder was assayed against T1, 人Siglec-15抗原 (Siglec-15蛋白胞外段) (assay: ELISA, Siglec-15 coated, Goat Anti-Mouse IgG-HRP detection).

Row | Binder | binding result
7 | B7 | binds
8 | B8 | binds
9 | B9 | binds
10 | B10 | binds
